From paper PMC9947420

Target: GST-tagged PEX5-binding domain of X. laevis PEX14 (amino acids 19-78) (Xenopus laevis)
Test: SEC; Superdex 200 HiLoad 26/600 PG, XBHS buffer with 1 mM DTT; retention volume between 180 and 190 mL

stoichiometry N: 2
Substance: GST-tagged PEX5-binding domain of X. laevis PEX14 (amino acids 19-78) (domain or fragment)
